Measured values reported in patent US20240092889A1 (Chugai, published 2024).
Where a chain is given by its changes, count along the chain named. Numbers in names are those of the source.

T1: recombinant human C1r2s2 tetramer (human, UniProt P09871 16-688; P00736 18-705)
T1 construct: C1s and C1r co-expressed in HEK293/FreeStyle 293-F and purified from conditioned medium
T1 chain 1: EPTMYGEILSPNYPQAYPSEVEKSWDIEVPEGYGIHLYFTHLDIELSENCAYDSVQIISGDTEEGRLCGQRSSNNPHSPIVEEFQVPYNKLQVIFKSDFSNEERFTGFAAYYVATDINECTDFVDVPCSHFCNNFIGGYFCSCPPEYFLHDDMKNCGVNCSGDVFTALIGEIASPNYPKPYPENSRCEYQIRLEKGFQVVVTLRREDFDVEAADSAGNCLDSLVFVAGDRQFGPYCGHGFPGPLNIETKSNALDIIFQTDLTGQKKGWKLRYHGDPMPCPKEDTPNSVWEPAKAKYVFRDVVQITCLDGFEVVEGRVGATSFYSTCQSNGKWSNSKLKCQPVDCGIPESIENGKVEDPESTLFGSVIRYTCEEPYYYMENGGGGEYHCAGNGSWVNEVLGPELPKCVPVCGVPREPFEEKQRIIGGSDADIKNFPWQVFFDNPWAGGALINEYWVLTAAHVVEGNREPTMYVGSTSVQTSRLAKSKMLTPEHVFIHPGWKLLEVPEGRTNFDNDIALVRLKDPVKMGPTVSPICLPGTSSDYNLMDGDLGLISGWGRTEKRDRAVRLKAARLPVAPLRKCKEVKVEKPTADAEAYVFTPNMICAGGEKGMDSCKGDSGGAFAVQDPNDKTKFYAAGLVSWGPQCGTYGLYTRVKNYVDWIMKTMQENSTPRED
T1 chain 2: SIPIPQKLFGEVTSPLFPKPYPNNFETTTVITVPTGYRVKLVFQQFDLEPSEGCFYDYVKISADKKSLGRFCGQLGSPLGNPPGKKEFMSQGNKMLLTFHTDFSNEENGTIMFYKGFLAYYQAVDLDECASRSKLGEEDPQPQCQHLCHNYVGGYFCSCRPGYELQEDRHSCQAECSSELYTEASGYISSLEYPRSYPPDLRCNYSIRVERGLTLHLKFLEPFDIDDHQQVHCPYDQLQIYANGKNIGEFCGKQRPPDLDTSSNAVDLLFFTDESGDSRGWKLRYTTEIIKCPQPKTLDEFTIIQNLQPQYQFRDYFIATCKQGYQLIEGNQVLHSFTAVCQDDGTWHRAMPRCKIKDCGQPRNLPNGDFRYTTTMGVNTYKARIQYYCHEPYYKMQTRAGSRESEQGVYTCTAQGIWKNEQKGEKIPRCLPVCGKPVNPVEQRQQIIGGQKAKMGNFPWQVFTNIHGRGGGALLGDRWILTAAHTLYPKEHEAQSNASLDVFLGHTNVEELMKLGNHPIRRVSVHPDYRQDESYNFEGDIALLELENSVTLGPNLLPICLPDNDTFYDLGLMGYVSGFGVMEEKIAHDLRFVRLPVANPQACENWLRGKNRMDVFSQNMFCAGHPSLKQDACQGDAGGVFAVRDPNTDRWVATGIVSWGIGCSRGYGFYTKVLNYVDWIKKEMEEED

B1: AL0465 (antibody, human IgG1, kappa, V domains shown)
VH: QVQLVESGGGVVQPGRSLRLSCAASGFTFSAYAMNWIRQPPGKGLEWIGLIYGSGSTFYASWAKGRVTISVDTSKNQFSLKLSSVTAADTAVYYCARGRSVNYNSDFHLWGQGTLVTVSS
VL: DIQMTQSPSSLSASVGDRVTITCQASQSLHDKKNLAWYQQKPGQPPKLLIYGASTLESGVPSRFSGSGSGTDFTLTISSLQPEDFATYYCQGEFSSSSADCNTFGQGTKVEIKR
notes: COS0637temp with VL C94S (Kabat), already in the VL entry
B2: AL0550 (antibody, human IgG1, kappa, V domains shown)
VH: B1 VH
VL: B1 VL with S96C, C101L
notes: COS0637temp with VL C95dL (Kabat), already in the VL entry
B3: AL0553 (antibody, human IgG1, kappa, V domains shown)
VH: B1 VH
VL: B1 VL with S96C, C101P
notes: COS0637temp with VL C95dP (Kabat), already in the VL entry
B4: AL0542 (antibody, human IgG1, kappa, V domains shown)
VH: B1 VH
VL: B1 VL with S96C, C101A
notes: COS0637temp with VL C95dA (Kabat), already in the VL entry
B5: AL0544 (antibody, human IgG1, kappa, V domains shown)
VH: B1 VH
VL: B1 VL with S96C, C101E
notes: COS0637temp with VL C95dE (Kabat), already in the VL entry
B6: AL0468 (antibody, human IgG1, kappa, V domains shown)
VH: B1 VH
VL: B1 VL with S96W
notes: COS0637temp with VL C94W (Kabat), already in the VL entry
B7: AL0745 (antibody, human IgG1, kappa, V domains shown)
VH: B1 VH
VL: B1 VL with S96E, C101L
notes: COS0637temp with VL C94E/C95dL (Kabat), already in the VL entry
B8: AL0551 (antibody, human IgG1, kappa, V domains shown)
VH: B1 VH
VL: B1 VL with S96C, C101M
notes: COS0637temp with VL C95dM (Kabat), already in the VL entry
B9: AL0739 (antibody, human IgG1, kappa, V domains shown)
VH: B1 VH
VL: B1 VL with S96V, C101L
notes: COS0637temp with VL C94V/C95dL (Kabat), already in the VL entry
B10: AL0549 (antibody, human IgG1, kappa, V domains shown)
VH: B1 VH
VL: B1 VL with S96C, C101K
notes: COS0637temp with VL C95dK (Kabat), already in the VL entry
B11: AL0742 (antibody, human IgG1, kappa, V domains shown)
VH: B1 VH
VL: B1 VL with S96W, C101R
notes: COS0637temp with VL C94W/C95dR (Kabat), already in the VL entry
B12: AL0543 (antibody, human IgG1, kappa, V domains shown)
VH: B1 VH
VL: B1 VL with S96C, C101D
notes: COS0637temp with VL C95dD (Kabat), already in the VL entry
B13: AL0469 (antibody, human IgG1, kappa, V domains shown)
VH: B1 VH
VL: B1 VL with S96Y
notes: COS0637temp with VL C94Y (Kabat), already in the VL entry
B14: AL0736 (antibody, human IgG1, kappa, V domains shown)
VH: B1 VH
VL: B1 VL with S96R, C101L
notes: COS0637temp with VL C94R/C95dL (Kabat), already in the VL entry
B15: AL0546 (antibody, human IgG1, kappa, V domains shown)
VH: B1 VH
VL: B1 VL with S96C, C101G
notes: COS0637temp with VL C95dG (Kabat), already in the VL entry
B16: AL0552 (antibody, human IgG1, kappa, V domains shown)
VH: B1 VH
VL: B1 VL with S96C, C101N
notes: COS0637temp with VL C95dN (Kabat), already in the VL entry
B17: AL0560 (antibody, human IgG1, kappa, V domains shown)
VH: B1 VH
VL: B1 VL with S96C, C101Y
notes: COS0637temp with VL C95dY (Kabat), already in the VL entry
B18: AL0738 (antibody, human IgG1, kappa, V domains shown)
VH: B1 VH
VL: B1 VL with S96L, C101L
notes: COS0637temp with VL C94L/C95dL (Kabat), already in the VL entry
B19: AL0547 (antibody, human IgG1, kappa, V domains shown)
VH: B1 VH
VL: B1 VL with S96C, C101H
notes: COS0637temp with VL C95dH (Kabat), already in the VL entry
B20: AL0467 (antibody, human IgG1, kappa, V domains shown)
VH: B1 VH
VL: B1 VL with S96V
notes: COS0637temp with VL C94V (Kabat), already in the VL entry
B21: AL0741 (antibody, human IgG1, kappa, V domains shown)
VH: B1 VH
VL: B1 VL with S96W, C101Q
notes: COS0637temp with VL C94W/C95dQ (Kabat), already in the VL entry
B22: AL0554 (antibody, human IgG1, kappa, V domains shown)
VH: B1 VH
VL: B1 VL with S96C, C101Q
notes: COS0637temp with VL C95dQ (Kabat), already in the VL entry
B23: AL0466 (antibody, human IgG1, kappa, V domains shown)
VH: B1 VH
VL: B1 VL with S96T
notes: COS0637temp with VL C94T (Kabat), already in the VL entry
B24: AL0557 (antibody, human IgG1, kappa, V domains shown)
VH: B1 VH
VL: B1 VL with S96C, C101T
notes: COS0637temp with VL C95dT (Kabat), already in the VL entry
B25: AL0545 (antibody, human IgG1, kappa, V domains shown)
VH: B1 VH
VL: B1 VL with S96C, C101F
notes: COS0637temp with VL C95dF (Kabat), already in the VL entry
B26: AL0555 (antibody, human IgG1, kappa, V domains shown)
VH: B1 VH
VL: B1 VL with S96C, C101R
notes: COS0637temp with VL C95dR (Kabat), already in the VL entry
B27: AL0559 (antibody, human IgG1, kappa, V domains shown)
VH: B1 VH
VL: B1 VL with S96C, C101W
notes: COS0637temp with VL C95dW (Kabat), already in the VL entry
B28: AL0558 (antibody, human IgG1, kappa, V domains shown)
VH: B1 VH
VL: B1 VL with S96C, C101V
notes: COS0637temp with VL C95dV (Kabat), already in the VL entry
B29: AL0556 (antibody, human IgG1, kappa, V domains shown)
VH: B1 VH
VL: B1 VL with S96C, C101S
notes: COS0637temp with VL C95dS (Kabat), already in the VL entry
B30: AL0548 (antibody, human IgG1, kappa, V domains shown)
VH: B1 VH
VL: B1 VL with S96C, C101I
notes: COS0637temp with VL C95dI (Kabat), already in the VL entry

Biological target: T1, recombinant human C1r2s2 tetramer
Test: SPR (BIACORE), antibody captured by ProL, human C1r2s2 injected at 100 nM, pH 7.4, 37 C
Protocol: Analysis of interaction between antibody variants and the human C1r2s2 prepared as mentioned above was carried out at pH7.4, at 37 degrees C. using BIACORE® T200 instrument (GE Healthcare) or BIACORE® 4000 (GE Healthcare). ProL (BioVision) was immobilized onto a CM4 sensorchip using amine coupling kit (GE Healthcare) according to the recommended settings by GE Healthcare. Antibodies and analytes were diluted into the respective running buffers, ACES pH7.4 (20 mM ACES (N-(2-Acetamido)-2-aminoethanesulfonic acid), 150 mM NaCl, 1.2 mM CaCl2, 1 mg/ml bovine serum albumin (BSA), 1 mg/ml CMD (CM-Dextran sodium salt), 0.05% Tween® 20 (polysorbate 20), 0.005 w/v % NaN3). Each antibody was captured onto the sensor surface by ProL. Antibody capture levels were aimed at 200 resonance units (RU). Then, recombinant human C1r2s2 was injected at concentrations of 25 and 100 nM followed by dissociation at pH7.4. The surface was regenerated using 10 mM Glycine-HCl, pH1.5.

Binder	binding result
B1	no binding (tested: 100 nM)
B2	no binding (tested: 100 nM)
B3	no binding (tested: 100 nM)
B4	no binding (tested: 100 nM)
B5	no binding (tested: 100 nM)
B6	no binding (tested: 100 nM)
B7	no binding (tested: 100 nM)
B8	no binding (tested: 100 nM)
B9	no binding (tested: 100 nM)
B10	no binding (tested: 100 nM)
B11	no binding (tested: 100 nM)
B12	no binding (tested: 100 nM)
B13	no binding (tested: 100 nM)
B14	no binding (tested: 100 nM)
B15	no binding (tested: 100 nM)
B16	no binding (tested: 100 nM)
B17	no binding (tested: 100 nM)
B18	no binding (tested: 100 nM)
B19	no binding (tested: 100 nM)
B20	no binding (tested: 100 nM)
B21	no binding (tested: 100 nM)
B22	no binding (tested: 100 nM)
B23	no binding (tested: 100 nM)
B24	no binding (tested: 100 nM)
B25	no binding (tested: 100 nM)
B26	no binding (tested: 100 nM)
B27	no binding (tested: 100 nM)
B28	no binding (tested: 100 nM)
B29	no binding (tested: 100 nM)
B30	no binding (tested: 100 nM)
